Laboratory results published in patent CN114349851A (SHANGHAI NAI BIOTECHNOLOGY CO LTD, dated 2022).

Tests used:
[1] = target: T1, 新冠病毒全长S蛋白 (Spike-trimer) (SARS-CoV-2, UniProt P0DTC2 14-1213); test: BLI (Octet RED96), His-tagged nanobody on Ni-NTA sensor
T1 construct: also called S-FL

[2] = target: T2, Delta(B.1.617.2)突变株RBD蛋白 (SARS-CoV-2 Delta (B.1.617.2), UniProt P0DTC2 319-541); test: as above
T2 construct: domain: RBD; also called RBD-Delta; RBD-Delta(B.1.617.2)

[3] = target: T3, B.1.617.1突变株RBD蛋白 (SARS-CoV-2 B.1.617.1, UniProt P0DTC2 319-541); test: ELISA
T3 construct: domain: RBD

B1: 纳米抗体C5 (C5克隆) (VHH)
VHH: DVQLVESGGGSVQAGGSLRLSCAASGKYSHLGFLGWFRQAPGKEREGVAAGLGAYEDGYYADSVKGRFTVSLDNAENTVYLQMNSLKPEDTALYYCAALVVFSRDSPEFLAQNYWGQGTQVTVSS
notes: also called C5抗体; C5 nanobody
B1 gave a Kd [1] of 18 nM.

B2: 纳米抗体C5G2 (VHH)
VHH: DVQLVESGGGSVQAGGSLRLSCAASGKFSHLVFLGWFRQAPGKEREGVAAGLGAYESGYYADSVKGRFTVSLDNAENTVYLQMNSLKPEDTALYYCAALVVLSRDNTEFIAHNYWGQGTQVTVSS
B2 was tested, and the Kd [2] was 83.1 nM and the binding result [3] was “no binding”.

B3: 纳米抗体C5D2 (VHH)
VHH: DVQLVESGGGSVQAGGSLRLSCAASGEYSQLRFLGWFRQAPGKEREGVAAGLGANEDGYYADSVKGRFTVSLDNAENTVYLQMNSLKPEDTALYYCAALVIFSHDGPEFLAQNYWGQGTQVTVSS
With B3 the Kd [2] was 13.1 nM and the binding result [3] was “no binding”.
